Test results: article PMC8196004
Changes are numbered by the printed parent chain. Numbers in names are those of the source. Values belong to the binder of their own block, whether it stands above or below them.

Biological target: T1, PP2A-B55, Q7ZX64
T1 chain: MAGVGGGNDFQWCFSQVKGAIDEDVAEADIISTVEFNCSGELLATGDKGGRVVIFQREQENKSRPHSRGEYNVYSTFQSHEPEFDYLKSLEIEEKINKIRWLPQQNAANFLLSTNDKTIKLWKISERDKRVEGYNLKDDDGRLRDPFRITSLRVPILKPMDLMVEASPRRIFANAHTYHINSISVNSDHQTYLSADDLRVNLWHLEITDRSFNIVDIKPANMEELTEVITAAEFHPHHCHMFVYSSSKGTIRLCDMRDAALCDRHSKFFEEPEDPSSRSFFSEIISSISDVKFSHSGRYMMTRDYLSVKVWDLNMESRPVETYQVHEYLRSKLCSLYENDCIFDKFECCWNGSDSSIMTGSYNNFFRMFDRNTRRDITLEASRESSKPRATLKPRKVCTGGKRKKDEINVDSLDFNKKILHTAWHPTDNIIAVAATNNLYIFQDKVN
Assay: His pull-down, western blot quantification
Settings: read off a plot

[1] = chain shown with the change, 20 ng His-Arpp19, panel titled Phospho-Arpp19, parent: est. 0.98
[2] = chain shown with the change, Arpp19 thio-phosphorylated at S67/S71 (ATPγS and recombinant Gwl kinase), parent: est. 1.0
[3] = chain shown with the change;, parent: est. 0.83
[4] = chain shown with the change;, parent: est. 0.90

B2: 6His-Xenopus Arpp19 (isoform 1), wild type F69A (protein)
chain: MSGENQETKAQEESSALEQKEIDDKVVSPEKSEEIKLKARYPNLGPKPGGSDFLRKRLQKGVSKKQKYADSGDYNMAKAKMKNKQLPTAASDKTEVTGDHIPTPQDLPQRKPSLVASKLAG
- response [1]: 0.04 AU
- response [2]: 0.08 AU

B3: 6His-Xenopus Arpp19 (isoform 1), wild type G72A; S71T (protein)
chain: B2 chain with A69F, S71T, G72A
- response [3]: 0.08 AU

B4: 6His-Xenopus Arpp19 (isoform 1), wild type K67A (protein)
chain: B2 chain with K67A, A69F
- response [1]: 0.52 AU

B5: 6His-Xenopus Arpp19 (isoform 1), wild type D70A (protein)
chain: B2 chain with A69F, D70A
- response [1]: 0.14 AU
- response [2]: 0.04 AU

B6: 6His-Xenopus Arpp19 (isoform 1), wild type G72A (protein)
chain: B2 chain with A69F, G72A
- response [1]: 1.4 AU
- response [3]: 1.2 AU

B8: 6His-Xenopus Arpp19 (isoform 1), wild type D73A (protein)
chain: B2 chain with A69F, D73A
- response [1]: 0.16 AU
- response [2]: 0.15 AU

B12: 6His-Xenopus Arpp19 (isoform 1), wild type G72A; S71A (protein)
chain: B2 chain with A69F, S71A, G72A
- response [3]: 0.16 AU

Now from value to binder:

- response [1]: 0.16 AU
- response [2]: 0.18 AU
B1: 6His-Xenopus Arpp19 (isoform 1), wild type Y68A (protein)
chain: B2 chain with Y68A, A69F

- response [1]: 0.09 AU
- response [2]: 0.11 AU
B7: 6His-Xenopus Arpp19 (isoform 1), wild type Y74A (protein)
chain: B2 chain with A69F, Y74A

- response [4]: 0.57 AU
B9: 6His-Xenopus Arpp19 (isoform 1), wild type T103A; P104A (protein)
chain: B2 chain with A69F, T103A, P104A

- response [1]: 0.86 AU
B10: 6His-Xenopus Arpp19 (isoform 1), wild type Q66A (protein)
chain: B2 chain with Q66A, A69F

- response [1]: 0.21 AU
- response [2]: 0.13 AU
B11: 6His-Xenopus Arpp19 (isoform 1), wild type S71T (protein)
chain: B2 chain with A69F, S71T

- response [4]: 0.36 AU
B13: 6His-Xenopus Arpp19 (isoform 1), wild type T103A; P104A; D106A; L107A; P108A; Q109A (protein)
chain: B2 chain with A69F, T103A, P104A, D106A, L107A, P108A, Q109A
